B1: peptide HD2 (from tick evasin EVA4) / CXCL13 (biotinylated, synthetic) (parent)
chain 1: EEDDYTAYAPLTCYFT
chain 2: VLEVYYTSLRCRCVQESSVFIPRRFIDRIQILPRGNGCPRKEIIVWKKNKSIVCVDPQAEWIQRMMEVLRKRSSSTLPVPVFKRKIP
B2: peptide HD2 (from tick evasin EVA4) / CCL22 (biotinylated, synthetic) (parent)
chain 1: EEDDYTAYAPLTCYFT
chain 2: GPYGANMEDSVCCRDYVRYRLPLRVVKHFYWTSDSCPRPGVVLLTFRDKEICADPRVPWVKMILNKLSQ
B3: peptide HD2 (from tick evasin EVA4) / CCL17 (biotinylated, synthetic) (parent)
chain 1: EEDDYTAYAPLTCYFT
chain 2: ARGTNVGRECCLEYFKGAIPLRKLKTWYQTSEDCSRDAIVFVTVQGRAICSDPNNKRVKNAVKYLQSLERS

Variants of: B1
Details: with CXCL13 (biotinylated, synthetic); scale: log2

Variant | enrichment
chain 1 C13H | -7.42
chain 1 A7C | -8.62
chain 1 D3C | -8.67
chain 1 D3K | -4.13
chain 1 D3R | -6.23
chain 1 D3H | -5.74
chain 1 Y8K | -4.84
chain 1 Y8R | -6.96
chain 1 Y8C | -8.46
chain 1 Y8P | -6.64
chain 1 Y5R | -5.82
chain 1 Y5K | -4.37
chain 1 Y5C | -7.94
chain 1 Y5T | -6.44
chain 1 L11Q | -5.03
chain 1 L11G | -9.02
chain 1 L11P | -6.87
chain 1 L11K | -5.76
chain 1 L11D | -7.86

Variant | enrichment
chain 1 L11E | -6.94
chain 1 A9D | -7
chain 1 A9C | -8.86
chain 1 A9K | -5.4
chain 1 Y14E | -7.54
chain 1 Y14G | -9.28
chain 1 Y14Q | -6.82
chain 1 Y14P | -7.63
chain 1 Y14D | -6.3
chain 1 Y14R | -8.87
chain 1 Y14L | -9.26
chain 1 Y14A | -8.81
chain 1 Y14N | -5.67
chain 1 Y14S | -8.45
chain 1 Y14K | -6.94
chain 1 Y14I | -6.05
chain 1 T12K | -6.36
chain 1 T12E | -6.73
chain 1 T12G | -9.07

Variants of: B2
Details: with CCL22 (biotinylated, synthetic); scale: log2

Variant | enrichment
chain 1 D3R | -7.45
chain 1 D3C | -9.89
chain 1 D3Q | -4.99
chain 1 E2R | -7.13
chain 1 E2C | -10
chain 1 P10V | -10.4
chain 1 P10A | -8.71
chain 1 P10C | -9.72
chain 1 P10Q | -6.39
chain 1 P10S | -9.19
chain 1 P10I | -8.44
chain 1 P10H | -7.95
chain 1 P10R | -9.08
chain 1 P10T | -7.86
chain 1 P10N | -8.02
chain 1 P10M | -8.5
chain 1 P10K | -6.96
chain 1 E1C | -9.75
chain 1 A9P | -7.8
chain 1 A9I | -9.99
chain 1 A9C | -10.1
chain 1 A9D | -8.23
chain 1 D4R | -7.09
chain 1 D4H | -7.77

Variant | enrichment
chain 1 D4G | -6.22
chain 1 D4C | -9.24
chain 1 D4T | -7.88
chain 1 D4K | -6.88
chain 1 Y5G | -7.11
chain 1 Y5K | -5.6
chain 1 Y5R | -7.05
chain 1 Y5P | -6.73
chain 1 Y5Q | -5.36
chain 1 C13Q | -9.37
chain 1 C13R | -10.5
chain 1 C13K | -9.12
chain 1 A7C | -9.84
chain 1 Y8N | -8.13
chain 1 Y8M | -8.49
chain 1 Y8R | -8.18
chain 1 Y8Q | -6.36
chain 1 Y8K | -6.07
chain 1 Y8G | -8.71
chain 1 Y8P | -7.86
chain 1 Y8E | -6.18
chain 1 Y8I | -9.38
chain 1 Y8H | -7.57
chain 1 Y8T | -8.48

Variants of: B3
Details: with CCL17 (biotinylated, synthetic); scale: log2

Variant | enrichment
chain 1 Y5Q | -5.46
chain 1 Y5T | -7.77
chain 1 Y5N | -7.81
chain 1 Y5K | -5.7
chain 1 Y5E | -3.59
chain 1 Y5R | -7.15
chain 1 P10S | -9.3
chain 1 P10I | -8.54
chain 1 P10N | -8.12
chain 1 P10M | -8.6
chain 1 P10C | -9.82
chain 1 P10K | -7.07
chain 1 P10V | -10.5
chain 1 P10R | -9.18
chain 1 P10H | -8.06
chain 1 D4C | -9.34
chain 1 T6C | -11.2

Variant | enrichment
chain 1 Y14E | -8.87
chain 1 Y14N | -7
chain 1 Y14D | -7.63
chain 1 Y14R | -10.2
chain 1 E1C | -9.85
chain 1 Y8E | -6.29
chain 1 Y8T | -8.59
chain 1 Y8M | -8.59
chain 1 Y8D | -7.65
chain 1 Y8R | -8.29
chain 1 Y8P | -7.97
chain 1 Y8I | -9.49
chain 1 Y8A | -8.88
chain 1 Y8N | -8.23
chain 1 Y8K | -6.17
chain 1 Y8Q | -6.46
chain 1 Y8G | -8.81

— article PMC11969024, “Development of chemokine network inhibitors using combinatorial saturation mutagenesis” (Communications Biology, 2025)
